How the values were obtained:
[1] = target: JR-CSF T198A
[2] = target: JR-CSF S365A
[3] = target: BG505 K121A
[4] = target: BG505 L369A
[5] = target: JR-CSF N283A
[6] = target: BG505 N279A
[7] = target: JR-CSF S199A
[8] = target: BG505 K282A
[9] = target: JR-CSF N362A
[10] = target: JR-CSF R476A
[11] = target: JR-CSF Env on JR-CSF pseudovirus
[12] = target: BG505 N363A
[13] = target: BG505 T372A
[14] = target: JR-CSF N276A
[15] = target: BG505 R476A
[16] = target: BG505 N332T
[17] = target: BG505 T373A
[18] = target: BG505 G471A
[19] = target: BG505 D474A
[20] = target: JR-CSF N279A; assay: ELISA, gp120 captured from lysed virions
[21] = target: JR-CSF G472A; assay: ELISA, gp120 captured from lysed virions
[22] = target: JR-CSF N262A; assay: ELISA, gp120 captured from lysed virions
[23] = target: JR-CSF T198A; assay: ELISA, gp120 captured from lysed virions
[24] = target: BG505 G366A; assay: ELISA, gp120 captured from lysed virions
[25] = target: BG505 G367A; assay: ELISA, gp120 captured from lysed virions
[26] = target: JR-CSF S365A; assay: ELISA, gp120 captured from lysed virions
[27] = target: JR-CSF E370A; assay: ELISA, gp120 captured from lysed virions
[28] = target: JR-CSF T373A; assay: ELISA, gp120 captured from lysed virions
[29] = target: BG505 L179A; assay: ELISA, gp120 captured from lysed virions
[30] = target: JR-CSF G366A; assay: ELISA, gp120 captured from lysed virions
[31] = target: BG505 K121A; assay: ELISA, gp120 captured from lysed virions
[32] = target: JR-CSF D368A; assay: ELISA, gp120 captured from lysed virions
[33] = target: BG505 V371A; assay: ELISA, gp120 captured from lysed virions
[34] = target: JR-CSF G473A; assay: ELISA, gp120 captured from lysed virions
[35] = target: JR-CSF N283A; assay: ELISA, gp120 captured from lysed virions
[36] = target: JR-CSF S199A; assay: ELISA, gp120 captured from lysed virions
[37] = target: BG505 K282A; assay: ELISA, gp120 captured from lysed virions
[38] = target: JR-CSF N362A; assay: ELISA, gp120 captured from lysed virions
[39] = target: JR-CSF R476A; assay: ELISA, gp120 captured from lysed virions
[40] = target: BG505 N283A; assay: ELISA, gp120 captured from lysed virions
[41] = target: BG505 N363A; assay: ELISA, gp120 captured from lysed virions
[42] = target: JR-CSF N276A; assay: ELISA, gp120 captured from lysed virions
[43] = target: BG505 R476A; assay: ELISA, gp120 captured from lysed virions
[44] = target: JR-CSF G471A; assay: ELISA, gp120 captured from lysed virions
[45] = target: JR-CSF T372A; assay: ELISA, gp120 captured from lysed virions
[46] = target: BG505 G472A; assay: ELISA, gp120 captured from lysed virions
[47] = target: JR-CSF K207A; assay: ELISA, gp120 captured from lysed virions
[48] = target: BG505 G471A; assay: ELISA, gp120 captured from lysed virions
[49] = target: BG505 N197A; assay: ELISA, gp120 captured from lysed virions
[50] = target: JR-CSF gp120 captured from lysed virions (HIV isolate JR-CSF) (UniProt P20871); assay: ELISA, gp120 captured from lysed virions
[51] = target: BG505 S365A; assay: ELISA, gp120 captured from lysed virions
[52] = target: JR-CSF V371A; assay: ELISA, gp120 captured from lysed virions
[53] = target: BG505 L369A; assay: ELISA, gp120 captured from lysed virions
[54] = target: BG505 S364A; assay: ELISA, gp120 captured from lysed virions
[55] = target: BG505 N279A; assay: ELISA, gp120 captured from lysed virions
[56] = target: BG505 T372A; assay: ELISA, gp120 captured from lysed virions
[57] = target: BG505 E370A; assay: ELISA, gp120 captured from lysed virions
[58] = target: BG505 gp120 captured from lysed virions (HIV isolate BG505); assay: ELISA, gp120 captured from lysed virions
[59] = target: BG505 N332T; assay: ELISA, gp120 captured from lysed virions
[60] = target: BG505 T373A; assay: ELISA, gp120 captured from lysed virions

Substance: PGT121 (antibody)
- IC50, pseudovirus neutralization [1]: 0.046 µg/mL
- IC50, pseudovirus neutralization [2]: 0.026 µg/mL
- IC50, pseudovirus neutralization [3]: 0.026 µg/mL
- IC50, pseudovirus neutralization [4]: 0.021 µg/mL
- IC50, pseudovirus neutralization [5]: 0.017 µg/mL
- IC50, pseudovirus neutralization [6]: 0.02 µg/mL
- IC50, pseudovirus neutralization [7]: 0.03 µg/mL
- IC50, pseudovirus neutralization [8]: 0.009 µg/mL
- IC50, pseudovirus neutralization [9]: 0.026 µg/mL
- IC50, pseudovirus neutralization [10]: 0.014 µg/mL
- IC50, pseudovirus neutralization [11]: 0.028 µg/mL
- IC50, pseudovirus neutralization [12]: 0.026 µg/mL
- IC50, pseudovirus neutralization [13]: 0.019 µg/mL
- IC50, pseudovirus neutralization [14]: 0.033 µg/mL
- IC50, pseudovirus neutralization [15]: 0.02 µg/mL
- IC50, pseudovirus neutralization [16]: 0.019 µg/mL
- IC50, pseudovirus neutralization [17]: 0.017 µg/mL
- IC50, pseudovirus neutralization [18]: 0.014 µg/mL
- IC50, pseudovirus neutralization [19]: 0.023 µg/mL
- EC50 [20]: 0.535 µg/mL
- EC50 [21]: 0.664 µg/mL
- EC50 [22]: 0.947 µg/mL
- EC50 [23]: 0.604 µg/mL
- EC50 [24]: 0.9 µg/mL
- EC50 [25]: 4 µg/mL
- EC50 [26]: 0.935 µg/mL
- EC50 [27]: 0.933 µg/mL
- EC50 [28]: 0.643 µg/mL
- EC50 [29]: 0.5 µg/mL
- EC50 [30]: 0.489 µg/mL
- EC50 [31]: 1 µg/mL
- EC50 [32]: 0.942 µg/mL
- EC50 [33]: 1.4 µg/mL
- EC50 [34]: 0.46 µg/mL
- EC50 [35]: 0.615 µg/mL
- EC50 [36]: 1.91 µg/mL
- EC50 [37]: 1.3 µg/mL
- EC50 [38]: 0.747 µg/mL
- EC50 [39]: 0.984 µg/mL
- EC50 [40]: 3.4 µg/mL
- EC50 [41]: 2.3 µg/mL
- EC50 [42]: 1.25 µg/mL
- EC50 [43]: 1 µg/mL
- EC50 [44]: 0.619 µg/mL
- EC50 [45]: 0.698 µg/mL
- EC50 [46]: 1.4 µg/mL
- EC50 [47]: 0.437 µg/mL
- EC50 [48]: 2.5 µg/mL
- EC50 [49]: 1.3 µg/mL
- EC50 [50]: 1.33 µg/mL

Substance: VRC01 (antibody)
- EC50 [51]: 1.4 µg/mL
- EC50 [24]: 0.7 µg/mL
- EC50 [25]: 9.4 µg/mL
- EC50 [52]: 1.62 µg/mL
- EC50 [28]: 0.456 µg/mL
- EC50 [29]: 0.6 µg/mL
- EC50 [31]: 0.7 µg/mL
- EC50 [53]: 1.6 µg/mL
- EC50 [33]: 1.3 µg/mL
- EC50 [54]: 0.4 µg/mL
- EC50 [35]: 0.348 µg/mL
- EC50 [55]: 25.4 µg/mL
- EC50 [37]: 0.6 µg/mL
- EC50 [38]: 0.327 µg/mL
- EC50 [41]: 0.9 µg/mL
- EC50 [56]: 0.4 µg/mL
- EC50 [43]: 0.5 µg/mL
- EC50 [57]: 1.1 µg/mL
- EC50 [58]: 0.2 µg/mL
- EC50 [46]: 0.9 µg/mL
- EC50 [59]: 0.2 µg/mL
- EC50 [60]: 0.5 µg/mL
- EC50 [49]: 0.4 µg/mL

— patent US20200165324A1
